Data published in article PMC7529888 (Nature, 2020).

How the values were obtained:
PARP2 [1] = molecular target: PARP2 (UniProt Q9UGN5-2 1-570); experiment: EMSA
PARP2 [2] = molecular target: PARP2 (human (from the printed UniProt …, UniProt Q9UGN5-2 1-570)); experiment: cryo-EM structure

| binding result (PARP2 [2]) | Binder | binding result (PARP2 [1]) |
| --- | --- | --- |
| – | TCGCGGCAGCTGGTGCTGCCGCGA (structured_DNA, 5' phosphate) [hairpin DNA 5'P] | binds |
| binds | HPF1 (natural protein) MVGGGGKRRPGGEGPQCEKTTDVKKSKFCEADVSSDLRKEVENHYKLSLPEDFYHFWKFCEELDPEKPSDSLSASLGLQLVGPYDILAGKHKTKKKSTGLNFNLHWRFYYDPPEFQTIIIGDNKTQYHMGYFRDSPDEFPVYVGINEAKKNCIIVPNGDNVFAAVKLFLTKKLREITDKKKINLLKNIDEKLTEAARELGYSLEQRTVKMKQRDKKVVTKTFHGAGLVVPVDKNDVGYRELPETDADLKRICKTIVEAASDEERLKAFAPIQEMMTFVQFANDECDYGMGLELGMDLFCYGSHYFHKVAGQLLPLAYNLLKRNLFAEIIEEHLANRSQENIDQLAA | – |
